This is an account of results in paper doi:10.1101/2020.05.04.070177, “Mechanistic insights into RNA binding and RNA-regulated RIG-I ubiquitination by TRIM25” (bioRxiv, 2020).

A word on the Kd: it is the equilibrium constant for the complex coming apart.

The target of data set [1] is T1, TRIM25 CC-PRY/SPRY (UniProt Q14258 189-630). As to the kind of experiment: ITC; second fitted site, N 0.10; ITC and filter binding: 20 mM MES pH 6.5, 75 mM NaCl, 0.5 mM TCEP (ITC 20 C, filter binding on ice); NMR: 20 mM Na phosphate pH 6.5, 150 mM NaCl, 2 mM TCEP, 293 K. The settings on record: protein: recombinant; tags: His-Trx (removed); chain copies: 2; hairpin. In general terms: ITC needs no label: the signal is the heat of the interaction.

The target of data set [2] is T2, TRIM25 CC-PRY/SPRY penta-mutant (UniProt Q14258 189-630, K283A;K285A;H505E;K508E;K602E). The data set can be described thus: ITC; no binding detected; ITC and filter binding: 20 mM MES pH 6.5, 75 mM NaCl, 0.5 mM TCEP (ITC 20 C, filter binding on ice); NMR: 20 mM Na phosphate pH 6.5, 150 mM NaCl, 2 mM TCEP, 293 K. The following applies: protein: recombinant; tags: His-Trx (removed); chain copies: 2; hairpin.

In data set [3] the target is T1, TRIM25 CC-PRY/SPRY. As to the kind of experiment: ITC; first of two fitted sites; ITC and filter binding: 20 mM MES pH 6.5, 75 mM NaCl, 0.5 mM TCEP (ITC 20 C, filter binding on ice); NMR: 20 mM Na phosphate pH 6.5, 150 mM NaCl, 2 mM TCEP, 293 K. The following applies: protein: recombinant; tags: His-Trx (removed); chain copies: 2; hairpin.
The target of data set [4] is T3, TRIM25 PRY/SPRY (UniProt Q14258 439-630). The data set can be described thus: ITC; ITC and filter binding: 20 mM MES pH 6.5, 75 mM NaCl, 0.5 mM TCEP (ITC 20 C, filter binding on ice); NMR: 20 mM Na phosphate pH 6.5, 150 mM NaCl, 2 mM TCEP, 293 K. The following applies: protein: recombinant; tags: His-Trx (removed); single strand.
The target of data set [5] is T1, TRIM25 CC-PRY/SPRY. The description is as above. The following applies: protein: recombinant; tags: His-Trx (removed); chain copies: 2; single strand.
For data set [6], the target named is T3, TRIM25 PRY/SPRY. The data set can be described thus: NMR; CSPs at site 2 only; ITC and filter binding: 20 mM MES pH 6.5, 75 mM NaCl, 0.5 mM TCEP (ITC 20 C, filter binding on ice); NMR: 20 mM Na phosphate pH 6.5, 150 mM NaCl, 2 mM TCEP, 293 K. The settings on record: protein: recombinant; tags: His-Trx (removed); chain copies: 3; hairpin.
Data set [7] deals with T1, TRIM25 CC-PRY/SPRY. The data set can be described thus: ITC; first of two fitted sites (second 106 nM); ITC and filter binding: 20 mM MES pH 6.5, 75 mM NaCl, 0.5 mM TCEP (ITC 20 C, filter binding on ice); NMR: 20 mM Na phosphate pH 6.5, 150 mM NaCl, 2 mM TCEP, 293 K. The following applies: protein: recombinant; tags: His-Trx (removed); chain copies: 2; hairpin.
The target in data set [8] is T1, TRIM25 CC-PRY/SPRY. The data set can be described thus: filter binding; ITC and filter binding: 20 mM MES pH 6.5, 75 mM NaCl, 0.5 mM TCEP (ITC 20 C, filter binding on ice); NMR: 20 mM Na phosphate pH 6.5, 150 mM NaCl, 2 mM TCEP, 293 K. The following applies: protein: recombinant, tags: His-Trx (removed), chain copies: 2, hairpin.
The target in data set [9] is T1, TRIM25 CC-PRY/SPRY. The data set can be described thus: ITC; second fitted site, N 0.08; ITC and filter binding: 20 mM MES pH 6.5, 75 mM NaCl, 0.5 mM TCEP (ITC 20 C, filter binding on ice); NMR: 20 mM Na phosphate pH 6.5, 150 mM NaCl, 2 mM TCEP, 293 K. The settings on record: protein: recombinant; tags: His-Trx (removed); chain copies: 2; hairpin.
Data set [10] concerns the target T2, TRIM25 CC-PRY/SPRY penta-mutant. As to the kind of experiment: ITC; ITC and filter binding: 20 mM MES pH 6.5, 75 mM NaCl, 0.5 mM TCEP (ITC 20 C, filter binding on ice); NMR: 20 mM Na phosphate pH 6.5, 150 mM NaCl, 2 mM TCEP, 293 K. The settings on record: protein: recombinant; tags: His-Trx (removed); chain copies: 2; hairpin.
Target sequence in this assay (Q14258 189-630 K283A/K285A/H505E/K508E/K602E): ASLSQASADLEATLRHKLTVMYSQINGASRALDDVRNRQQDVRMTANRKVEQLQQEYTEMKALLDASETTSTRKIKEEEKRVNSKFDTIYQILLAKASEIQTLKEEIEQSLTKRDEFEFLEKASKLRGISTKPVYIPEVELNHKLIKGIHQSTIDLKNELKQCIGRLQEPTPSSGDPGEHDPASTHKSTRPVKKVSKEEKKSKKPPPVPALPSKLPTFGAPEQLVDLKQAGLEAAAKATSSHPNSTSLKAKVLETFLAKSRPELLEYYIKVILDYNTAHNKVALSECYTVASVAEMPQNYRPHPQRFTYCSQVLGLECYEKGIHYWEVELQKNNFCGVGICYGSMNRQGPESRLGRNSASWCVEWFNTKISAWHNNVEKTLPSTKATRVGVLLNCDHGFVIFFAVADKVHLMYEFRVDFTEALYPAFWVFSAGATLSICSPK
Data set [11] deals with the molecule itself. As to the kind of experiment: NMR titration; CC-PRY/SPRY with pre-let-7 RNA added; domain-domain interaction within the construct; 1H,15N-HSQC.

UUUUAUCUGAGUUGGAGGUGAAG (structured_RNA) [Lnczc3h7a-SL]: the Kd with TRIM25 CC-PRY/SPRY [1] stood at 8900 ± 4500 nM; in the data set with TRIM25 CC-PRY/SPRY [3], 486 ± 77 nM. Also, in data set [2], the binding result is on record as “no binding”.
With UAAAAGGAGAU (ssRNA) [pre-let-7 loop], the Kd was determined as 42000 ± 53000 nM with TRIM25 PRY/SPRY [4] and 4100 ± 1900 nM with TRIM25 CC-PRY/SPRY [5].
As to GUAUAGUUCAACUAUAC (structured_RNA) [pre-let-7 stem (stem-fusion)], the binding result with TRIM25 PRY/SPRY [6] is on record as “binds”.
For GCAGGUCGGAUUAAGCCAUAGUACGGGAAAAACUAUGCUACCUG (structured_RNA) [DENV-SL], the Kd in the data set with TRIM25 CC-PRY/SPRY [7] came to 15.2 ± 3 nM; with TRIM25 CC-PRY/SPRY [8] it was 1.63 ± 0.38 nM; with TRIM25 CC-PRY/SPRY [9] it was 106 ± 35 nM; in data set [10], 363 ± 84 nM.

B1: TRIM25 CC-PRY/SPRY (aa 189-630) (domain or fragment, human, UniProt Q14258 189-630, looked up)
chain: ASLSQASADLEATLRHKLTVMYSQINGASRALDDVRNRQQDVRMTANRKVEQLQQEYTEMKALLDASETTSTRKIKEEEKRVNSKFDTIYQILLKKKSEIQTLKEEIEQSLTKRDEFEFLEKASKLRGISTKPVYIPEVELNHKLIKGIHQSTIDLKNELKQCIGRLQEPTPSSGDPGEHDPASTHKSTRPVKKVSKEEKKSKKPPPVPALPSKLPTFGAPEQLVDLKQAGLEAAAKATSSHPNSTSLKAKVLETFLAKSRPELLEYYIKVILDYNTAHNKVALSECYTVASVAEMPQNYRPHPQRFTYCSQVLGLHCYKKGIHYWEVELQKNNFCGVGICYGSMNRQGPESRLGRNSASWCVEWFNTKISAWHNNVEKTLPSTKATRVGVLLNCDHGFVIFFAVADKVHLMYKFRVDFTEALYPAFWVFSAGATLSICSPK
notes: TRIM25 coiled-coil (CC), L2 linker and PRY/SPRY domain, aa 189-630; also called TRIM25 189-630
For the molecule B1, in [11], the binding result is “binds”.
For GUGUAAAAUGAUGGAAUAUAUACUAUCGUUUUACGC (structured_RNA) [roX2 stem-loop (SL7 in text, SL6 in Table 2)], the Kd with TRIM25 CC-PRY/SPRY [8] (label: 5' 32P) was 18.1 ± 2.2 nM.
